Laboratory results reported in article PMC6406002, “Comparison of the functional properties of trimeric and monomeric CaiT of Escherichia coli” (Scientific Reports, 2019).

Molecular target: the molecule itself
Experiment: SEC; gel filtration (Superdex 10/300 GL) after incubation at given temperature for 60 min in 100 mM potassium phosphate pH 7.5, 2 mM β-mercaptoethanol, 0.04% DDM

B1: L-carnitine/γ-butyrobetaine antiporter CaiT of Escherichia coli, wild-type (natural protein)
chain: not shown
notes: CaiT, L-carnitine/γ-butyrobetaine antiporter of E. coli; the caiT gene cloned into pET21a; also called CaiT(WT); WT; source: E. coli JW0039 with pET21a/caiT, purified (Ni-NTA), in detergent (DDM)
binding result: binds
